Measured values reported in patent US20250262153A1.

Target: PD-1 protein on the surface of Jurkat PD-1 NFAT line cells (UniProt Q15116)
Assay: cell-based or functional assay

UniProt Q15116, sequence (Q15116 25-288 limits assumed): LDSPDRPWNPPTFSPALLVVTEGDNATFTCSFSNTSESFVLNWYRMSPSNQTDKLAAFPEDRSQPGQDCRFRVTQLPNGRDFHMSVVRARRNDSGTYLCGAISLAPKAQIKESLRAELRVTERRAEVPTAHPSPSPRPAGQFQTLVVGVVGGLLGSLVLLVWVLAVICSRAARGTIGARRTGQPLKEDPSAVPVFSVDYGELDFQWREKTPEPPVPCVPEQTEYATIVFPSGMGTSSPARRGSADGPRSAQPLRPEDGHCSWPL

B1: prolgolimab (antibody, from a related filing, V domains shown)
VH: QVQLVQSGGGLVQPGGSLRLSCAASGFTFSSYWMYWVRQVPGKGLEWVSAIDTGGGRTYYADSVKGRFAISRVNAKNTMYLQMNSLRAEDTAVYYCARDEGGGTGWGVLKDWPYGLDAWGQGTLVTVSS
VL: QPVLTQPLSVSVALGQTARITCGGNNIGSKNVHWYQQKPGQAPVLVIYRDSNRPSGIPERFSGSNSGNTATLTISRAQAGDEADYYCQVWDSSTAVFGTGTKLTVLQ
Relative specific activity, % (ED50 standard / ED50 test, Jurkat PD-1 NFAT luminescence); 20 mg/ml, histidine, trehalose 100 mg/ml, 37 C, initial control: 105%
Relative specific activity, %; 20 mg/ml, acetate pH 5.0, trehalose 80 mg/ml, 37 C, 2 weeks: 103%
Relative specific activity, %; 20 mg/ml, acetate pH 5.0, trehalose 80 mg/ml, 37 C, 4 weeks: 94%
Relative specific activity, %; 20 mg/ml, acetate pH 5.0, trehalose 80 mg/ml, 37 C, initial control: 100%
Relative specific activity, %; 20 mg/ml, acetate pH 5.0, trehalose 100 mg/ml, 37 C, 2 weeks: 93%
Relative specific activity, %; 20 mg/ml, acetate pH 5.0, trehalose 100 mg/ml, 37 C, 4 weeks: 99%
Relative specific activity, %; 20 mg/ml, acetate pH 5.0, trehalose 100 mg/ml, 37 C, initial control: 89%
Relative specific activity, %; 20 mg/ml, histidine, trehalose 80 mg/ml, 37 C, 2 weeks: 103%
Relative specific activity, %; 20 mg/ml, histidine, trehalose 80 mg/ml, 37 C, 4 weeks: 94%
Relative specific activity, %; 20 mg/ml, histidine, trehalose 80 mg/ml, 37 C, initial control: 100%
Relative specific activity, %; 20 mg/ml, histidine, trehalose 100 mg/ml, 37 C, 2 weeks: 97%
Relative specific activity, %; 20 mg/ml, histidine, trehalose 100 mg/ml, 37 C, 4 weeks: 110%
Relative specific activity, %; 100 mg/ml, acetate pH 5.0, trehalose 80 mg/ml, 37 C, 2 weeks: 94%
Relative specific activity, %; 100 mg/ml, acetate pH 5.0, trehalose 80 mg/ml, 37 C, 4 weeks: 105%
Relative specific activity, %; 100 mg/ml, acetate pH 5.0, trehalose 80 mg/ml, 37 C, initial control: 89%
Relative specific activity, %; 100 mg/ml, acetate pH 5.0, trehalose 100 mg/ml, 37 C, 2 weeks: 112%
Relative specific activity, %; 100 mg/ml, acetate pH 5.0, trehalose 100 mg/ml, 37 C, 4 weeks: 97%
Relative specific activity, %; 100 mg/ml, acetate pH 5.0, trehalose 100 mg/ml, 37 C, initial control: 107%
Relative specific activity, %; 100 mg/ml, histidine, trehalose 80 mg/ml, 37 C, 2 weeks: 94%
Relative specific activity, %; 100 mg/ml, histidine, trehalose 80 mg/ml, 37 C, 4 weeks: 105%
Relative specific activity, %; 100 mg/ml, histidine, trehalose 80 mg/ml, 37 C, initial control: 89%
Relative specific activity, %; 100 mg/ml, histidine, trehalose 100 mg/ml, 37 C, 2 weeks: 104%
Relative specific activity, %; 100 mg/ml, histidine, trehalose 100 mg/ml, 37 C, 4 weeks: 97%
Relative specific activity, %; 100 mg/ml, histidine, trehalose 100 mg/ml, 37 C, initial control: 101%
Relative specific activity, %; 150 mg/ml, acetate pH 5.0, trehalose 80 mg/ml, 37 C, 2 weeks: 99%
Relative specific activity, %; 150 mg/ml, acetate pH 5.0, trehalose 80 mg/ml, 37 C, 4 weeks: 108%
Relative specific activity, %; 150 mg/ml, acetate pH 5.0, trehalose 80 mg/ml, 37 C, initial control: 91%
Relative specific activity, %; 150 mg/ml, acetate pH 5.0, trehalose 100 mg/ml, 37 C, 2 weeks: 106%
Relative specific activity, %; 150 mg/ml, acetate pH 5.0, trehalose 100 mg/ml, 37 C, 4 weeks: 103%
Relative specific activity, %; 150 mg/ml, acetate pH 5.0, trehalose 100 mg/ml, 37 C, initial control: 92%
Relative specific activity, %; 150 mg/ml, histidine, trehalose 80 mg/ml, 37 C, 2 weeks: 99%
Relative specific activity, %; 150 mg/ml, histidine, trehalose 80 mg/ml, 37 C, 4 weeks: 108%
Relative specific activity, %; 150 mg/ml, histidine, trehalose 80 mg/ml, 37 C, initial control: 91%
Relative specific activity, %; 150 mg/ml, histidine, trehalose 100 mg/ml, 37 C, 2 weeks: 100%
Relative specific activity, %; 150 mg/ml, histidine, trehalose 100 mg/ml, 37 C, 4 weeks: 105%
Relative specific activity, %; 150 mg/ml, histidine, trehalose 100 mg/ml, 37 C, initial control: 97%
